Assay results taken from patent US20240294647A1.

Tests used:
[1] = target: human CD16A-158V ECD fused to monomeric Fc (human) (UniProt P08637); test: SPR (Biacore T200), receptor captured, 1:1 model
[2] = target: human CD16A-158F ECD fused to monomeric Fc (human) (UniProt P08637); test: SPR (Biacore T200), receptor captured, 1:1 model
Sequence of human CD16A-158F ECD fused to monomeric Fc (human) (P08637 17-208): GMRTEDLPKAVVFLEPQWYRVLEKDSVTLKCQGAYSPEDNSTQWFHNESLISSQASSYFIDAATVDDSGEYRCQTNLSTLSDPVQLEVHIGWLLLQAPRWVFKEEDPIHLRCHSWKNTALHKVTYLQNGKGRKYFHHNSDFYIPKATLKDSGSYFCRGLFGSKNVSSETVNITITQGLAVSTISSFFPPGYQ

Sequence of human CD16A-158V ECD fused to monomeric Fc (human) (P08637 17-208 F176V): as the sequence (P08637 17-208) above, with F160V counted along it

Row | Substance | Kd [1] | koff [1] | kon [1] | Kd [2] | koff [2] | kon [2]
1 | human IgG1 Fc (enhanced, S239D/I332E) (antibody) | 13.5 nM | 0.00639 s⁻¹ | 474000 M⁻¹ s⁻¹ |  |  | 
2 | human IgG1 Fc (silenced, L234F/L235E/D265A) (antibody) |  |  |  | 34700 nM | 0.71 s⁻¹ | 20400 M⁻¹ s⁻¹
3 | human IgG1 Fc (wildtype) (antibody) | 424 nM | 0.00995 s⁻¹ | 23500 M⁻¹ s⁻¹ | 2720 nM | 0.0675 s⁻¹ | 24800 M⁻¹ s⁻¹
